Results reported in US9266939B2, “Compositions comprising natriuretic peptides and methods of use thereof” (Alexion Pharmaceuticals, Inc., priority 2010, dated 2016).
Peptide text beside a SMILES is read from it.

Legend:
[1] = molecular target: neutral endopeptidase (NEP) (Homo sapiens, UniProt P08473)
[2] = molecular target: T1, NPR-B (Homo sapiens, UniProt P20594); assay: Whole cell guanylyl cyclase (cGMP) assay, NPR-B; assay type: cell-based; parameters: expressed in transfected cells; conditions: for potency compared with CNP22: CNP22 position 17 point mutants, NPR-B whole cell cGMP assay (FIG. 30); for efficacy relative to CNP / potency relative to CNP (times less than that of CNP): NPR-B whole cell assay (FIG. 21C)
T1 sequence (P20594 23-1047): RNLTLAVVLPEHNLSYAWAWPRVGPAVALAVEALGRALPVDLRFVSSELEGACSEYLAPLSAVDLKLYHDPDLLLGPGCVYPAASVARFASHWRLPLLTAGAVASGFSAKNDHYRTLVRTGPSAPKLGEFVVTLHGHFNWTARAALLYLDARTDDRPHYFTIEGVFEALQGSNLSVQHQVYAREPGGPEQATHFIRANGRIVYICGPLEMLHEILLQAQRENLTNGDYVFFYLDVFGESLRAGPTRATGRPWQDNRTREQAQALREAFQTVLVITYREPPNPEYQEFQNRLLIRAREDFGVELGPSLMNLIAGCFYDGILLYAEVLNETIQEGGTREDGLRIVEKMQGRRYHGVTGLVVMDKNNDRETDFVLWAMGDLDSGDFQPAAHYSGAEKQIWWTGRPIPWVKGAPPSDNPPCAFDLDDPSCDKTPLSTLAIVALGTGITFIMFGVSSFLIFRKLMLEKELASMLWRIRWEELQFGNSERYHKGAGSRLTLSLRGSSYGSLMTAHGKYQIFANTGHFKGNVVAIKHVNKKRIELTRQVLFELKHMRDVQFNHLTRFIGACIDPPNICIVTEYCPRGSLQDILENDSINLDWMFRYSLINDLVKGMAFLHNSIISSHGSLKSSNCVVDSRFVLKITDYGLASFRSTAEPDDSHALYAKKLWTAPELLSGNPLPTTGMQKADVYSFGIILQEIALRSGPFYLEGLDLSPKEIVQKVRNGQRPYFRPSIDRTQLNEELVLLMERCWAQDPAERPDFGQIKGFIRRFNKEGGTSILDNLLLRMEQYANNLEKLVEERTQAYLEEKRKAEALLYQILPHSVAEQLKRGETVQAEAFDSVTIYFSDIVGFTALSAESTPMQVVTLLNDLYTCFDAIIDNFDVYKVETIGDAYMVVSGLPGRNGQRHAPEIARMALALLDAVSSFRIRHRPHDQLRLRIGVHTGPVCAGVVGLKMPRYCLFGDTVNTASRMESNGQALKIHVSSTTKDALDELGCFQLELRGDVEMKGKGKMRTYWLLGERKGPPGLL
Description: HEK293S cells in a semi-confluent 75 cm2 flask are transfected with 30 μg of plasmid DNA coding for the appropriate receptor, e.g., human NPR-B or NPR-A, using Lipofectamine-2000CD. Alternatively, a stable polyclonal HEK293 S cell line expressing either human NPR-B or NPR-A was used. 24 hours after transfection, cells are trypsinized and plated into 48-well plates at 1×10^5 cells/well. Guanylyl cyclase assay is carried out 24 hours post-plating. Cells are first incubated for 30 minutes at 37° C. with serum-free DMEM medium. Then, they are incubated in triplicate with or without increasing concentrations of reference or test proteins in serum-free DMEM supplemented with 1 mM IBMX and 0.5% BSA, at 37° C. for 30 minutes to one hour. CNP serves as a suitable reference for NPR-B, while ANP is a suitable reference for NPR-A. Finally, cells are washed with ice-cold PBS and solubilized in lysis buffer from Catchpoint cGMP kit (Molecular devices). Concentrations of cGMP in lysate are determined using the Catchpoint cGMP kit. Dose-response curves are analysed with GraphPad Prism 5 software using non-linear regression with four-parameter logistic equation.

[3] = molecular target: T1, NPR-B; assay: Membrane guanylyl cyclase (cGMP) assay, NPR-B; assay type: biochemical
[4] = first NPR-B membrane assay (FIG. 21A)
[5] = second NPR-B membrane assay (FIG. 21B)

Chain of neutral endopeptidase (NEP) (P08473 whole entry): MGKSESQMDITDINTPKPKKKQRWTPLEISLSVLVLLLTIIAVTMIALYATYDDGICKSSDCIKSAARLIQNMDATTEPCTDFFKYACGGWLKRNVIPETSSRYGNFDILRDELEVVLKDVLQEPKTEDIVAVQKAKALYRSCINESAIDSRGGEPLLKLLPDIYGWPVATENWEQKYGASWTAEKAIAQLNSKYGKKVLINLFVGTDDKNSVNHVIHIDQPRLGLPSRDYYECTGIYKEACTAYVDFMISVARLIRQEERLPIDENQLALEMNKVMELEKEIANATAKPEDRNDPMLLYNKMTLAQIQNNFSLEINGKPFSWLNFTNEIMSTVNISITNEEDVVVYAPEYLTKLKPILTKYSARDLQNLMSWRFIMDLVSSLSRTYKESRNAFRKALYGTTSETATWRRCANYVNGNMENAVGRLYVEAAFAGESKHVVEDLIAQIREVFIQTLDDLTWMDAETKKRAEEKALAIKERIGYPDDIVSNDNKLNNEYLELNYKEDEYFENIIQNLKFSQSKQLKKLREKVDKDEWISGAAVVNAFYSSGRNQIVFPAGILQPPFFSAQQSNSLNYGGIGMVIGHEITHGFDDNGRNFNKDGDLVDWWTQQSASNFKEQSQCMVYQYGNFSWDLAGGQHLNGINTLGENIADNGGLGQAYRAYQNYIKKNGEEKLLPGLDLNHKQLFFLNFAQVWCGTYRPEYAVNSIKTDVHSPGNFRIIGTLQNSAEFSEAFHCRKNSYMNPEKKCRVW

`CC[C@H](C)[C@@H]1NC(=O)[C@H](CCCNC(=N)N)NC(=O)[C@H](CC(=O)O)NC(=O)[C@H](CC(C)C)NC(=O)[C@H](CCCCN)NC(=O)[C@H](CC(C)C)NC(=O)CNC(=O)[C@H](Cc2ccccc2)NC(=O)[C@@H](NC(=O)CNC(=O)[C@H](CCCCN)NC(=O)[C@H](CO)NC(=O)[C@H](CC(C)C)NC(=O)CN)CSSC[C@@H](C(=O)NCC(=O)N[C@@H](CO)C(=O)N[C@@H](CC(C)C)C(=O)N[C@@H](CCCNC(=N)N)C(=O)N[C@@H](CC(=O)O)C(=O)N2CCC[C@H]2C(=O)N[C@@H](CCCNC(=N)N)C(=O)N2CCC[C@H]2C(=O)N[C@@H](CC(N)=O)C(=O)N[C@@H](C)C(=O)N2CCC[C@H]2C(=O)N[C@@H](CO)C(=O)N[C@H](C(=O)N[C@@H](CO)C(=O)N[C@@H](C)C(=O)O)[C@@H](C)O)NC(=O)CNC(=O)[C@H](CC(C)C)NC(=O)CNC(=O)[C@H](CO)NC(=O)[C@H](CCSC)NC(=O)[C@H](CO)NC(=O)CNC1=O` [CDNP-G1] (HELM PEPTIDE1{G.L.S.K.G.C.F.G.L.K.L.D.R.I.G.S.M.S.G.L.G.C.G.S.L.R.D.P.R.P.N.A.P.S.T.S.A}$PEPTIDE1,PEPTIDE1,6:R3-22:R3$$$V2.0) was tested, and the “sensitivity to NEP degradation” value [1] was “comparable NEP sensitivity”.
`CC[C@H](C)[C@@H]1NC(=O)[C@H](CCCNC(=N)N)NC(=O)[C@H](CC(=O)O)NC(=O)[C@H](CC(C)C)NC(=O)[C@H](CCCCN)NC(=O)[C@H](CC(C)C)NC(=O)CNC(=O)[C@H](Cc2ccccc2)NC(=O)[C@@H](NC(=O)CNC(=O)[C@H](CCCCN)NC(=O)[C@H](CO)NC(=O)[C@H](CC(C)C)NC(=O)CN)CSSC[C@@H](C(=O)N[C@@H](Cc2c[nH]cn2)C(=O)N[C@@H](CO)C(=O)N[C@@H](CC(C)C)C(=O)N[C@@H](CCCNC(=N)N)C(=O)N[C@@H](CC(=O)O)C(=O)N2CCC[C@H]2C(=O)N[C@@H](CCCNC(=N)N)C(=O)N2CCC[C@H]2C(=O)N[C@@H](CC(N)=O)C(=O)N[C@@H](C)C(=O)N2CCC[C@H]2C(=O)N[C@@H](CO)C(=O)N[C@H](C(=O)N[C@@H](CO)C(=O)N[C@@H](C)C(=O)O)[C@@H](C)O)NC(=O)CNC(=O)[C@H](CC(C)C)NC(=O)CNC(=O)[C@H](CO)NC(=O)[C@H](CCSC)NC(=O)[C@H](CO)NC(=O)CNC1=O` [CDNP-H1] (HELM PEPTIDE1{G.L.S.K.G.C.F.G.L.K.L.D.R.I.G.S.M.S.G.L.G.C.H.S.L.R.D.P.R.P.N.A.P.S.T.S.A}$PEPTIDE1,PEPTIDE1,6:R3-22:R3$$$V2.0) was tested, and the “sensitivity to NEP degradation” value [1] was “comparable NEP sensitivity”.
`CC[C@H](C)[C@@H]1NC(=O)[C@H](CCCNC(=N)N)NC(=O)[C@H](CC(=O)O)NC(=O)[C@H](CC(C)C)NC(=O)[C@H](CCCCN)NC(=O)[C@H](CC(C)C)NC(=O)CNC(=O)[C@H](Cc2ccccc2)NC(=O)[C@@H](NC(=O)CNC(=O)[C@H](CCCCN)NC(=O)[C@H](CO)NC(=O)[C@H](CC(C)C)NC(=O)CN)CSSC[C@@H](C(=O)N[C@@H](CCCCN)C(=O)N[C@@H](CO)C(=O)N[C@@H](CC(C)C)C(=O)N[C@@H](CCCNC(=N)N)C(=O)N[C@@H](CC(=O)O)C(=O)N2CCC[C@H]2C(=O)N[C@@H](CCCNC(=N)N)C(=O)N2CCC[C@H]2C(=O)N[C@@H](CC(N)=O)C(=O)N[C@@H](C)C(=O)N2CCC[C@H]2C(=O)N[C@@H](CO)C(=O)N[C@H](C(=O)N[C@@H](CO)C(=O)N[C@@H](C)C(=O)O)[C@@H](C)O)NC(=O)CNC(=O)[C@H](CC(C)C)NC(=O)CNC(=O)[C@H](CO)NC(=O)[C@H](CCSC)NC(=O)[C@H](CO)NC(=O)CNC1=O` [CDNP-K1] (HELM PEPTIDE1{G.L.S.K.G.C.F.G.L.K.L.D.R.I.G.S.M.S.G.L.G.C.K.S.L.R.D.P.R.P.N.A.P.S.T.S.A}$PEPTIDE1,PEPTIDE1,6:R3-22:R3$$$V2.0) was tested, and the “sensitivity to NEP degradation” value [1] was “slightly more sensitive to NEP than the other CDNP variants”.
`CC[C@H](C)[C@@H]1NC(=O)[C@H](CCCNC(=N)N)NC(=O)[C@H](CC(=O)O)NC(=O)[C@H](CC(C)C)NC(=O)[C@H](CCCCN)NC(=O)[C@H](CC(C)C)NC(=O)CNC(=O)[C@H](Cc2ccccc2)NC(=O)[C@@H](NC(=O)CNC(=O)[C@H](CCCCN)NC(=O)[C@H](CO)NC(=O)[C@H](CC(C)C)NC(=O)CN)CSSC[C@@H](C(=O)N[C@@H](CC(N)=O)C(=O)N[C@@H](CO)C(=O)N[C@@H](CC(C)C)C(=O)N[C@@H](CCCNC(=N)N)C(=O)N[C@@H](CC(=O)O)C(=O)N2CCC[C@H]2C(=O)N[C@@H](CCCNC(=N)N)C(=O)N2CCC[C@H]2C(=O)N[C@@H](CC(N)=O)C(=O)N[C@@H](C)C(=O)N2CCC[C@H]2C(=O)N[C@@H](CO)C(=O)N[C@H](C(=O)N[C@@H](CO)C(=O)N[C@@H](C)C(=O)O)[C@@H](C)O)NC(=O)CNC(=O)[C@H](CC(C)C)NC(=O)CNC(=O)[C@H](CO)NC(=O)[C@H](CCSC)NC(=O)[C@H](CO)NC(=O)CNC1=O` [CDNP-N1] (HELM PEPTIDE1{G.L.S.K.G.C.F.G.L.K.L.D.R.I.G.S.M.S.G.L.G.C.N.S.L.R.D.P.R.P.N.A.P.S.T.S.A}$PEPTIDE1,PEPTIDE1,6:R3-22:R3$$$V2.0) was tested, and the “sensitivity to NEP degradation” value [1] was “comparable NEP sensitivity”.
“CNP-F17: CNP22 point mutant at position 17; SEQ ID NO: 119 (GLSKGCFGLKLDRIGSFSGLGC; Synthetic Construct (CNP-F17 (C15)))” was tested, and the “potency compared with CNP22” value [2] was “comparable potency to CNP22”.
With “CNP-L17: CNP22 point mutant at position 17; SEQ ID NO: 120 (GLSKGCFGLKLDRIGSLSGLGC; Synthetic Construct (CNP-L17 (C16)))” the “potency compared with CNP22” value [2] was “comparable potency to CNP22”.
In the case of “CNP-R17: CNP22 point mutant at position 17; SEQ ID NO: 157 (GLSKGCFGLKLDRIGSRSGLGC; Synthetic Construct (CNP-R17))”, the “potency compared with CNP22” value [2] is reported as “improved potency”.
In the case of “CNP-T17: CNP22 point mutant at position 17; SEQ ID NO: 122 (GLSKGCFGLKLDRIGSTSGLGC; Synthetic Construct (CNP-T17 (C18)))”, the “potency compared with CNP22” value [2] is reported as “comparable potency to CNP22”.
“CNP-Y17: CNP22 point mutant at position 17; SEQ ID NO: 158 (GLSKGCFGLKLDRIGSYSGLGC; Synthetic Construct (CNP-Y17))” was tested, and the “potency compared with CNP22” value [2] was “improved potency”.
In the case of “Fc-CNP53-A: N-terminal Fc, Gly3 linker, CNP53 with position 48 mutated to alanine; SEQ ID NO: 518”, the “efficacy relative to CNP” value [2] is reported as “comparable efficacy”, the “potency relative to CNP (times less than that of CNP)” value (from here on “potency relative to CNP”) [2] is reported as 5.4 times and the “efficacy relative to CNP” value [3, 4] is reported as “slightly better efficacy than CNP”. For the same compound, the “potency relative to CNP” value [3, 4] was “more than twice the potency as CNP”, the “efficacy relative to CNP” value [3, 5] was “comparable efficacy” and the “potency relative to CNP” value [3, 5] was 1.3 times.
For “Fc-CNP53-AAA: Fc-CNP53-A with residues 30 and 31 of CNP53 mutated to alanine; SEQ ID NO: 520”, the “efficacy relative to CNP” value [2] was 74%, the “potency relative to CNP” value [2] was 14 times and the “efficacy relative to CNP” value [3, 4] was “about two-thirds of CNP's efficacy”. For the same compound, the “potency relative to CNP” value [3, 4] was 1.5 times, the “efficacy relative to CNP” value [3, 5] was “comparable efficacy” and the “potency relative to CNP” value [3, 5] was 3.3 times.
